Source: patent US8871205B2, “Methods and compositions for the treatment of immune disorders” (The University of North Carolina at Chapel Hill, priority 2009, dated 2014)

System: WT or Plxna4−/− peritoneal macrophages
Test: TNF-α and IL-6 production (RT-PCR, ELISA) in peritoneal macrophages stimulated with Sema3A-Fc or Sema6A-Fc in the absence or presence of LPS
Format: cell-based, mouse
Details: semaphorin alone, absence of LPS; macrophages
Method: Messenger RNA (FIG. 7A) or protein (FIG. 7B) levels of TNF-α and IL-6 were measured by RT-PCR and ELISA, respectively. The IgG Fc fragment (100 μg/ml) was used as a negative control. WT and Plxna4^−/− mice (n=7˜9 per group) were pretreated with either Sema3A-Fc or IgG Fc control proteins at a dosage of 25 μg per kg body weight 1 h prior to CLP procedure (FIG. 7C). Survival rate was monitored for 5 days. τP<0.05 compared with WT mice pretreated with Sema3A-Fc. WT mice (n=4 per group) were pretreated with either Sema3A-Fc or IgG Fc control proteins, followed by CLP surgery (FIG. 7D). Inflammatory cytokines in peritoneal lavage collected 4 h after CLP were determined by ELISA. * P<0.05 compared to peritoneal lavage from WT mice pretreated with Sema3A-Fc (FIG. 7E). […] Inflammatory cytokines in peritoneal lavage collected 4 h after CLP were determined by ELISA. *P<0.05 compared with peritoneal lavage from WT mice pretreated with Sema3A-Fc (FIG. 7G).
Total peritoneal cells were harvested from the peritoneal cavities of naïve WT or Plxna4^−/− mice with two 10 ml cold sterile PBS wash. […] The remaining cells were thoroughly washed with PBS and counted in a hemocytometer. Cytospins were prepared and stained with Diff-Quik solutions, and the number of peritoneal macrophages was determined. […]

B1: Sema6A: human Sema6A-Fc (1146-S6, R&D); chimeric protein of human IgG1 Fc fragment fused to Sema6A (protein)
chain: GFPEDSEPISISHGNYTKQYPVFVGHKPGRNTTQRHRLDIQMIMIMNGTLYIAARDHIYTVDIDTSHTEEIYCSKKLTWKSRQADVDTCRMKGKHKDECHNFIKVLLKKNDDALFVCGTNAFNPSCRNYKMDTLEPFGDEFSGMARCPYDAKHANVALFADGKLYSATVTDFLAIDAVIYRSLGESPTLRTVKHDSKWLKEPYFVQAVDYGDYIYFFFREIAVEYNTMGKVVFPRVAQVCKNDMGGSQRVLEKQWTSFLKARLNCSVPGDSHFYFNILQAVTDVIRINGRDVVLATFSTPYNSIPGSAVCAYDMLDIASVFTGRFKEQKSPDSTWTPVPDERVPKPRPGCCAGSSSLERYATSNEFPDDTLNFIKTHPLMDEAVPSIFNRPWFLRTMVRYRLTKIAVDTAAGPYQNHTVVFLGSEKGIILKFLARIGNSGFLNDSLFLEEMSVYNSEKCSYDGVEDKRIMGMQLDRASSSLYVAFSTCVIKVPLGRCERHGKCKKTCIASRDPYCGWIKEGGACSHLSPNSRLTFEQDIERGNTDGLGDCHNSFVALNGHSSSLLPSTTTSDSTAQEGYESRGGMLDWKHLLDSPDSTDPLGAVSSHNHQDKKGVIRESYLKGHDQLVPVT
modifications: left off: a dimerising Fc or GST
notes: human Sema6A-Fc (1146-S6, R&D); chimeric protein of human IgG1 Fc fragment fused to Sema6A
TNF-α and IL-6 production: Neither Sema3A nor Sema6A alone induced
